Test results published in the supplement of paper PMC9732359.
± gives the uncertainty stated by the source.

Test: protein stability index of a GFP-peptide fusion (yeast GPS) (PSI 1-4); higher = more stable; sorted into four equal gates, so the index is relative within each strain
Conditions: doa10∆
Method in brief: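 Tiled yeast protein peptides of 17 residues were each joined downstream of GFP, on plasmids that also express Cherry. The pooled library was maintained in yeast, and mid-log cultures in leucine-free medium were sorted into four equal gates on the GFP/Cherry ratio. Plasmids from every gate were amplified by PCR and sequenced on Illumina, with barcodes linking reads to strains. The protein stability index of a peptide is its gate-number-weighted read frequency summed over the gates.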

VYYSKRGFKVGLVCADT [SRP54] and WDLLPEPIRFLPNQFPL [SWI1] are within error of each other in protein stability index: 2.41 ± 0.12 for the first, 2.54 ± 0.059 for the second.

Going from WDLSVEDALYLGKRSIL [PRE2] to WGHPTRMLLNLCKSATT [BRR2], the protein stability index falls from 3.4 ± 0.06 to 1.47 ± 0.047.

First: WIVVLPWFWLLPLWHLL [POP1]
Second: WKRQISYFLKLLGNCYS [SRB8]
The protein stability index of the first is higher: 2.4 ± 0.092 for the first, 1.63 ± 0.038 for the second.

Compared with WNKRDFMAFINACAKYG [ISW2], WQYIVIDEAHRIKNEQS [ISW2] is higher in protein stability index: 1.21 ± 0.087 for the first, 1.48 ± 0.075 for the second.

Compared with WREQLRNRDIALFQPPN [ROX3], WRKDAQGNYPTTSYIKE [DPB4] is higher in protein stability index: 2.31 ± 0.066 for the first, 2.94 ± 0.092 for the second.

Compared with WSFDLPEMSNLYRLSTP [PRP8], WTSTQRHHWQYTKASLA [SSN8] is lower in protein stability index: 2.71 ± 0.049 for the first, 1.26 ± 0.093 for the second.

Going from WVQLVQIIVTDGKLEPS [YJL039C/NUP192] to WVYKTKGDGMTSAVASI [RPN1], the protein stability index rises from 1.27 ± 0.065 to 2.75 ± 0.27.

WYIEKVIRIPMQENDKI [CSI1] and WYKVAKNVGNKSPEQCI [SWI3] are within error of each other in protein stability index: 3.05 ± 0.14 for the first, 2.98 ± 0.097 for the second.

First: YAKDILQKEFLPHITQL [RPB2]
Second: YALFLKALRRKIYINLA [SSN2]
The protein stability index of the first is higher: 1.76 ± 0.047 for the first, 1.62 ± 0.092 for the second.

First: YATKLSKFTKIPPTFDK [MED4]
Second: YCDSMGRPQRKMMSFQA [RPB5]
The protein stability index of the first is lower: 3.08 ± 0.089 for the first, 3.5 ± 0.12 for the second.

First: YCHEKELTIIKNPRVTK [CSN9]
Second: YCKGKTCRKHTQHKVTQ [RPL42A]
The protein stability index of the first is lower: 2.55 ± 0.098 for the first, 2.77 ± 0.094 for the second.

YCSGNIYDFHKMENLMR [YJL039C/NUP192] and YDGVERVSLQDIKDFAD [QCR2] are within error of each other in protein stability index: 2.77 ± 0.068 for the first, 2.84 ± 0.1 for the second.

Compared with YDLMAPNGHISTKKIQV [YMR129W/POM152], YDLNFKLRETLVKIDDL [SMC1] is higher in protein stability index: 2.15 ± 0.08 for the first, 3.05 ± 0.15 for the second.

YDTTPLLDTNSLEENAM [SKI6] and YENKQLYFPDDYPFTQL [POP1] are within error of each other in protein stability index: 3.08 ± 0.12 for the first, 2.92 ± 0.048 for the second.

Compared with YESRNVAKRRFEYSKYR [RRP6], YFFYASRPEYSCTFWSD [YJL039C/NUP192] is lower in protein stability index: 3.16 ± 0.072 for the first, 1.22 ± 0.069 for the second.

First: YGFSNKEYISRLWHTLK [SNF5]
Second: YGNPTSKESWRYDWYQP [RTT102]
The protein stability index of the first is lower: 1.57 ± 0.098 for the first, 2.05 ± 0.1 for the second.

First: YGTRPLVLPPVVTSSVA [SNF2]
Second: YGYFSVGKRVPIVEDRR [SIR4]
The protein stability index of the first is lower: 2.04 ± 0.086 for the first, 3.12 ± 0.12 for the second.

First: YHLLNYDPIKRIDAFNA [SSN3]
Second: YHNKHMMCDFGTGNNNK [DIB1]
The protein stability index of the first is lower: 2.33 ± 0.065 for the first, 2.7 ± 0.053 for the second.

First: YHSGRLLIQGPKASSAK [ITC1]
Second: YILANHYLSRVLSDQVG [YJL039C/NUP192]
The protein stability index of the first is higher: 3.15 ± 0.11 for the first, 2.87 ± 0.064 for the second.

Compared with YILRYLHANGASFFFMV [COB], YITARIMAKRPFDKKSN [FAS1] is higher in protein stability index: 1.57 ± 0.041 for the first, 2.74 ± 0.094 for the second.

Going from YKEQIIQGFYWAVKEGP [SNU114] to YKMVQEQLSKQRDLYKR [SMC2], the protein stability index rises from 2.75 ± 0.088 to 3.1 ± 0.097.

YKNLDRGFSKDLKSKAD [RRP6] and YKPLIEERMGQIENLNE [SMC4] are within error of each other in protein stability index: 3.05 ± 0.1 for the first, 3.2 ± 0.23 for the second.

Compared with YKQAMNETSEQLVPIRL [SNF5], YKVDNMTRILPQQSRYI [RPN2] is lower in protein stability index: 3.23 ± 0.16 for the first, 2.29 ± 0.077 for the second.

Going from YKVMHQIRACKDLKHII [PRP8] to YLAENPDPNFENSIGYN [PRP8], the protein stability index rises from 2.27 ± 0.041 to 3.28 ± 0.065.

Compared with YLERIELSFYILYSFKL [YML103C/NUP188], YLIVAGVDPTGSHLFSI [PUP1] is higher in protein stability index: 1.49 ± 0.057 for the first, 1.84 ± 0.081 for the second.

First: YLLASLKDSKDFDESLK [RPN9]
Second: YLLENNQVGTDELILPL [YDL116W/NUP84]
The protein stability index of the first is lower: 2.69 ± 0.083 for the first, 3.18 ± 0.081 for the second.

First: YLMDSKNVRTRIKLATT [RRI1]
Second: YLNDLMITKRILEVGAL [RPN12]
The protein stability index of the first is higher: 2.09 ± 0.08 for the first, 1.29 ± 0.16 for the second.

Compared with YMDSMNEKVAVMRNTYN [GAL11], YNGRGARERKTATYNDN [SNF2] is higher in protein stability index: 2.72 ± 0.13 for the first, 3 ± 0.069 for the second.

Compared with YNVCDTSKSLVKRYRLA [SIN4], YPFDKLESWWLVLGEVS [BRR2] is higher in protein stability index: 2.39 ± 0.055 for the first, 3.18 ± 0.18 for the second.

YPFLLSFLGEAKSMAFL [YML103C/NUP188] and YPFVTNDDIEWMLSICV [YJR042W/NUP85] are within error of each other in protein stability index: 2.18 ± 0.084 for the first, 2.29 ± 0.083 for the second.

Going from YQKNKPYPKSRYNRAVP [RPL10] to YRLMIKRLNFSFVGDYM [GRR1], the protein stability index falls from 2.91 ± 0.045 to 2 ± 0.065.

First: YSAAKKIPDTYTANTSA [YAR002W/NUP60]
Second: YSDIGGLESQIQEIKES [RPT2]
The protein stability index of the first is higher: 2.43 ± 0.11 for the first, 1.8 ± 0.095 for the second.

Compared with YSLHQIRKDPNNLSNQL [CSE2], YSRILKSMGRKCFDDIE [YCG1] is higher in protein stability index: 2.54 ± 0.076 for the first, 3.16 ± 0.17 for the second.

First: YSSKPYKVDNMTRILPQ [RPN2]
Second: YTNSVELRSLSKKDFKI [YMR129W/POM152]
The protein stability index of the first is higher: 2.62 ± 0.073 for the first, 2.41 ± 0.057 for the second.

Compared with YTRYLDRIYMLFHFEED [PRP8], YVIKALQSLTSKGYVKT [RPS10A] is higher in protein stability index: 1.68 ± 0.059 for the first, 2.88 ± 0.12 for the second.

Going from YVKAVSDKAQLNVVMKN [SMC4] to YVLYAKIVVLSRTGPVF [RRP43], the protein stability index falls from 2.1 ± 0.074 to 1.29 ± 0.097.

YVSALKRINKFLDSVHK [POP7] and YVSQIRKHKRVSPNAAP [YAR002W/NUP60] are within error of each other in protein stability index: 1.91 ± 0.049 for the first, 1.95 ± 0.084 for the second.

First: YVTKPMVNESDGVTHAL [RPB2]
Second: YWTQYLGLFIHKISFSG [YJL039C/NUP192]
The protein stability index of the first is higher: 3.2 ± 0.088 for the first, 1.99 ± 0.076 for the second.

First: YYGCLENDHERGFFHLN [CSN12]
Second: YYKNFHNSVKRYQIMLP [SNM1]
The protein stability index of the first is higher: 3.14 ± 0.063 for the first, 1.12 ± 0.042 for the second.

YYVPYSKLMPVLKSSVY [RPC82] gave a protein stability index of 1.53 ± 0.064.
